15 sequences from a protein production outcome set (Wang et al. 2014) can be followed below.
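Further: failed if final PepcDB status was selected cloned or expressed and not failed if soluble or beyond.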

The nature of the data set: label from the status in PepcDB records.
Turning to “MQKLVEQVWDYTKHAKFYSYRPNYAPKTIDMLISLVGKKDIKVADIGAGTGNLSIMLLERGCKVVSVEPNDAMREIGIERTKDQKIDWVRATGLNSTLQNSEFDWVTFGSSFNVMDRNEALEEAHRLLKSEGYFSCMWNHRDLNDPVQKIAEDTIVEFVPNYTRGTRREDQRPIIESRKDLFDNIVYIEEDFYFHQSIENYINAWKSVKNPYWDLETDEGNELFNKISNKISQRLPKEFSIKYTTRCWSAKKI”, the protein production result is “failed”. For the sequence “MQLHELVNTLGQDLQRRYGEKVHKLTLHGGFSCPNRDGTIGRGGCTFCNVASFADEEVQIKSIHEQLKDRAGEIHRAKKYLAYFQAYTSTYAEVQVLKNMYEEALKAADIVGLCVGTRPDCVPDSVLDLLSDYVNQGYEIWLELGLQTANNDTLKRINRGHDFECYAEITQRARALGIKVCTHLIVGLPKETRDDNIETLQKVLAVGTDGIKLHGLHIVEGSTMAKAWRAGRLEAPGLEEYVAIASEMIRMTPADVVFHRVSSAARRPTLLSPLWCENRWLAMTEIGRALNKDGAQGSLIGKPFIYTKPELKADCSINN”, the protein production result is “failed”. As for “MQLITFLHEFIKHPKHTGAIAPSSKILAKKMVDVIDFNKAKCIVELGPGTGVFTKEIMKRKKKETIFLLIEINEVFFKELKRKFKDEQNVIVVHGSAENIKKYMGEHNIECIDYVLSGLPFTSLPEEVSKRILNNAMEAIHENGEFITFQYSLVKKGFIQHFFPEITLEKVWLNFPPAYVFSCKKELRRAYA”, the entry is “failed”; as for “MQLNQTNTPFNEEQLALINQLLPMLTPEQQHWLSGYLLNPATTSVSDNKTDIQENEAGITETETSTSTDQSVSEPVSASTEPLDVHVLYGTETGNAEEIAETFETKLKSQNLNVHLWDMDDFPRDSLPEVEHLFIICSTQGVGEPPINALDLYDYLHGDDAPQLDQVNFAVLALGDQDFPDFCQAGKDFDYILGQLGANRVADRVDCDFDYEETAEQWITNMLELLTQASSNTNEETPSVENEDVTIEEPQAPYSKSNPFQAEVLKNTILTQPEASREVRHLEISLEGYREAYEPGDSLVVIPQNDPVLVNQLIDALNWDAETPIQMNDSDSMRSLKEALTHDFEIAKLTPVLMKNAAELLGNPMLNANIQKSEWVQNYIYGKDVIDLIRDFTPVALEPNMLPQLLRKLPPREYSIASSNKVNPNSVHITVRVVKYEAHRRERFGVCSVQLADRTSVGDKLPVYLKKNPNFKFPYDTETPVIMIGAGTGIAPYRAYLQERAYLNLKGEQWLIFGNQNYHHDFLYKDDLEQWLEEGVLSKLDLAFSRETENKIYVQHRIEENSAEFYKWIQAGATIYLCGNKDEMASGVHESLIKVLIKEGNLDETEAEAYLTEMIKNQRYQRDVY”, “failed”; as for “MQLQLICEDPSQQSHLDELAARWQLSHTDESDFALVLTAERLELRKVDEPKLGAIFVDLIGGAVGHRRKFGGGKGQAIAKAAGLNKGATPTVLDGTAGLGRDAFVLASLGCKVQMVERHPVVAALLDDGLARAKQDPEIGTWVSERMSLIHASSHDALDQLAQDREFVKPDVVYLDPMYPHPENKKKSALVKKEMRVFQSLVGADLDADGLLEPALALATKRVVVKRPDYANWLNEQKPSMAIETKKNRFDVYVKASMALEHHHHHH”, “not failed”.

In the case of “MQLSGRSSSGLGRAGQLLRRPEVLAFLPALSLLAYWLGGERALVFVALGLPLFYATVGAFRPAAPSVTPDGLALRPQVIASLDRVLQDRESTGRTTACLVLQFDGMDKLLDRHGRATQSEVLARCCDRLCSTLREGDTVARLEGGGLAVALHPVRRLDLQSVVLLAGRLQTAIAAPISVEGTRIHVTCSIGFCLAERTPAPTGRALLDAAQMAADEASRNGPGAVRAYALGMSRNRADRDADRGLLETALDTGQFTGWFQPQIRTEDGAIGGFEVLSRWQHPERGLLLPQDFLPAIERAGLSERLGEVMLFQALTALRHWDRAGLCVPCVAVNFSATDLRNPRLVDRLKWELDRFELTPARLSVEILETVVAEGASDVVVHNIAGLSACGFGVDLDDFGTGHASITTIRRFALRRLKIDRSFVTRADSDAAQRTMLAAIISMARQLGLETLAEGVETPGELATLTALGCGYLQGYAIARPMPLSDATAWLENRRVRLPLAARCATPGS”, the protein production entry was “failed”. The same measure for “MQLSSLTAVSPVDGRYAGKTQALRPIFSEYGLIRFRVMVEVRWLQRLAAHPQITEVPAFSAQANAILNTLAEDFSVEHAERVKEIERTTNHDVKAVEYLLKEQAAKLPELENVSEFIHFACTSEDINNLSHALMLREGRDTVMLPLMRQIADAIRELAIRFADVPMLSRTHGQPASPTTLGKELANVVYRLERQITQIAAVPLLGKINGAVGNYNAHLSAYADIDWEANARAFIEDELGLGFNPYTTQIEPHDYIAELFDAVARFNTILIDFDRDIWGYISLGYFKQRTIAGEIGSSTMPHKVNPIDFENSEGNLGIANALFQHLASKLPVSRWQRDLTDSTVLRNLGVGFAHSVIAYEASLKGISKLELNEQRIAADLDACWEVLAEPIQTVMRRYNIENPYEKLKELTRGKGIGPEALQTFIDGLDMPAQAKAELKKLTPANYIGNAAAQAKRI”: “not failed”. As to “MQMIKPPVQRHSHRRHRLLRSLGHQFSFGFFALCEKQRECKCDMATVMTTNLYNVARHSPHPIIFVCGSWSSLIESLIESAKEEEESMRRRS”, the protein production result is “failed”. Regarding “MQMNNHIRLRKAEGKWVIRTDSAVLGETLNAIELTEGSRDPVIYFPREDVAMVMFDKSEKVTACPLKGEASYYSIVGASGTLKDAAWSYESPKEGLEAIAGYLAFAPDCTKVGQY”, the protein production entry was “not failed”. Turning to “MQNAESWFKKYWHLSVLVIAALISVKLRILNPWNSVFTWTVRLGGNDPWYYYRLIENTIHNFPHRIWFDPFTYYPYGSYTHFGPFLVYLGSIAGIIFSATSGESLRAVLAFIPAIGGVLAILPVYLLTREVFDKRAAVIAAFLIAIVPGQFLQRSILGFNDHHIWEAFWQVSALGTFLLAYNRWKGHDLSHNLTARQMAYPVIAGITIGLYVLSWGAGFIIAPIILAFMFFAFVLAGFVNADRKNLSLVAVVTFAVSALIYLPFAFNYPGFSTIFYSPFQLLVLLGSAVIAAAFYQIEKWNDVGFFERVGLGRKGMPLAVIVLTALIMGLFFVISPDFARNLLSVVRVVQPKGGALTIAEVYPFFFTHNGEFTLTNAVLHFGALFFFGMAGILYSAYRFLKRRSFPEMALLIWAIAMFIALWGQNRFAYYFAAVSAVYSALALSVVFDKLHLYRALENAIGARNKLSYFRVAFALLIALAAIYPTYILADAQSSYAGGPNKQWYDALTWMRENTPDGEKYDEYYLQLYPTPQSNKEPFSYPFETYGVISWWDYGHWIEAVAHRMPIANPFQAGIGNKYNNVPGASSFFTAENESYAEFVAEKLNVKYVVSDIEMETGKYYAMAVWAEGDLPLAEKYYGGYFYYSPTGTFGYANSQWDIPLNSIIIPLRIPSELYYSTMEAKLHLFDGSGLSHYRMIYESDYPAEWKSYSSQVNLNNESQVLQTALYEAVMRARYGVSPTMGTQEVLYKYAYTQLYEKKMGIPVKIAPSGYVKIFERVKGAVVTGKVSANVTEVSVNATIKTNQNRTFEYWQTVEVKNGTYTVVLPYSHNSDYPVKPITPYHIKAGNVVKEITIYESQVQNGEIIQLDL”, the protein production entry is given as “failed”. Regarding “MQNIILTTKKIFRLAFILILIAATFMSCKTAPAKEETLIDLIKAGKSEELQERLNSSAINMKDEEGNSLLHIAAVKNDPIIVRLLINMDADIEAKNNTGATPLAAALNNSAYDAVKVLVEYNANIFAKDNEGEKPFDTACKNNVPNLILTAQTIKQKDENQDTVLHLAVKAMDKQLTKQILAIAPPETVYNKENLSPLAIAYKHNNAEDSAEIASILLLAGIQPMGKDFAEFETASLARNYSMRFADGETLLHIFARKGYTGFLKFLIKNKVPIDVKDISSSTAMQEAVYNGNTEAAILLLQAGADPNSRNSSGNTALHLVMPEASRSKLFNELITAGANPNLKDNYGETPLHVAARIGMNDDILDQLLKAGADINERNKKGQTPLILAIDRNQTQQVDFLINHGADIHAEDKSGESAFIHSLSMGLPMVEHVVTEKNSTERDSNGSTPLHLAVSHRASSDIIYYLVEKKSLINTRNKLGNTPLHIAAEKNYREAGEILIANNADIFYANLNGDSPLKFALTLREGREDWMINSHTIGAGDGAGNTPLHLAAEWQILPMIPYLIDKGADINARNTNNETPLFNAVRTDSPEAIKALLGEGVSKKADLDARDFLGNTILHAAVRWSAYKAADFILSKDTEEYVRLINAKNLAGKTVLHEAAKQGEIKFINIFLKAKVDVNAADETGRSPLSEAVLANQTQAIDLLLKNGASPVQQDMYGRTALHEAVEISEESIILVRNAGGNPLTKDAYGKTPFSLALNKNIRTVDLVLGNDSLLADTDGDTPLHIAVKERVSLDYFQRIMKKKYPVNKRNKNGETALLLAIQNSQKEITRALLAGGADPFIVNNKGVSAITEIFMHHPDFTPIAAEFSLKQTDTLGEGMLHYAAKFADVQTLKDILALPGIKLDVKNTAGETPYQVALRWNRSEIAELLKTE”, the protein production entry is “failed”.

“MQNIVIRQCGHEDESWMNTLYKQNSKQALYQLGKSLDEGFVQDNAHFDQVMKQWIEIGAVYAAEIEGDPVGFLVIQRERAQHGPEIIQYISSHENILILQERALSDLHYAGYGPVLVSPHARGKGVAKALHDHALHILKAEKFDAMVAFVDAENPTSLKIHVDALDMQIIDKVVLASGQFFIIGQVIG”: the protein production result was “failed”. For the sequence “MQNNSYGYAVSVRVGGKEHRHWERYDIDSDFLIPADSFDFVIGRLGPEAAIPDLSGESCEVVIDGQIVMTGIIGSQRHGKSKGSRELSLSGRDLAGFLVDCSAPQLNVKGMTVLDAAKKLAAPWPQIKAVVLKAENNPALGKIDIEPGETVWQALTHIANSVGLHPWLEPDGTLVVGGADYSSPPVATLCWSRTDSRCNIERMDIEWDTDNRFSEVTFLAQSHGRSGDSAKHDLKWVYKDPTMTLHRPKTVVVSDADNLAALQKQAKKQLADWRLEGFTLTITVGGHKTRDGVLWQPGLRVHVIDDEHGIDAVFFLMGRRFMLSRMDGTQTELRLKEDGIWTPDAYPKKAEAARKRKGKRKGVSHKGKKGGKKQAETAVFE”, the protein production result was “not failed”. Take “MQPCPSEAPRVLHALTRRGMALALAATLSLVLSACGGGGDDTAAATTAPPSSNAVTPSPSPAPAPTYSVGGTVAGLGSGLSVKLLNNGGDAVTVTANGNFQFPTALASGAQYAATVGTRPSGQQCTIANDSGTMGSANVTNIAVTCSTRPLFAYTANSNDNTVSAYTLDPTTGAPTLIGTPISVGQGPLSLIADKAGKFVYVVDGNDNSVTTLAIDSETGLLTISGTPATTGMQPFNIARTPASTFAYTTNFGDNTLSGFSINATTGVLTSIGTIAAGTNPYTIVINKAGTFAYVVNAASGAGTPSAMVFSINGATGALTAVGSPVATGNAPFYIALHPAGTFAYVANSQDNTVQVYAINQTTGALTAVGSPVATGQGPIPIAIHPSGLFAYVGNVFDNTVSLYAINTGTGALTLKSTLATGNDPLAITLNDAGSIAYIVNGVDHDVVAYAVDSSTGALTSVATAQTGLLPRAFAIVAVP”: the protein production entry is recorded as “failed”. As for “MQPEITSYRHPATGTVSYLVVDPATFLCAIVDPVLDFDPVTEEIDTRFVDAIIADIRAKDLGPTWILETGLHTGHLSAAGHLKYETGASVCIGAGVVESLKRLAPQFGETMVDLDGWDFDKLAQDGDTFPMGGLEITPIALTGRLPGAVAYRMADMVFTGDLVLAPAEGSGRCDIPGADAGKAWDDARKILALPPETRIMPGVSATAACESTVADAKASNIQLNDTIDQLDFIALRTAADAFLPDPELAAAALRVAIRAGRPPSPPESGPRFPAVDLSKL”, the entry is “failed”.
